Experimental data as given in publication PMC11434081, “Cross-Effects in Folding and Phase Transitions of hnRNP A1 and C9Orf72 RNA G4 In Vitro” (Molecules, 2024).
Substitutions are numbered along the chain they refer to. Names and notes keep the numbering of the source.

Biological target: the molecule itself
Assay: thioflavin T fluorescence (fibrillation assay); self-association of the peptide into cross-beta fibrils; 40 µM peptide, 13 µM ThT, 0.5 mM DTT, 40 mM HEPES-KOH pH 7.4, 150 mM KCl or NaCl (methods), room temperature (RGG-PLD^mut-NLS also at 37 °C), at least 3 h

B1: PLD^mut-NLS (hnRNP A1 aa 234–272, D262V) (peptide)
peptide: GGGYGGSGDGYNGFGNDGSNFGGGGSYNVFGNYNNQSSN
notes: hnRNP A1, human, residues 234-272 with D262V; Synthesised on an amide resin, so the C-terminus may be amidated; source: synthetic peptide (Fmoc solid phase, RP-HPLC purified)
  binding result: binds

B2: RGG-PLD^mut-NLS (hnRNP A1 aa 218–272, D262V) (peptide)
peptide: RGGNFSGRGGFGGSRGGGGYGGSGDGYNGFGNDGSNFGGGGSYNVFGNYNNQSSN
notes: hnRNP A1, human, residues 218-272 with D262V; Synthesised on an amide resin, so the C-terminus may be amidated; source: synthetic peptide (Fmoc solid phase, RP-HPLC purified)
  reduction of the ThT signal relative to PLD^mut-NLS: 30 ± 10%

B3: RGG-PLD^wt-NLS (hnRNP A1 aa 218–272, wild type) (peptide)
peptide: B2 peptide with V45D
notes: hnRNP A1, human, residues 218-272, wild type; Synthesised on an amide resin, so the C-terminus may be amidated; source: synthetic peptide (Fmoc solid phase, RP-HPLC purified)
  fold lower fibrillation (ThT) than RGG-PLD^mut-NLS: ~2 fold
